Assay results as given in the DeepSol protein solubility set.

Assay: soluble on expression in E. coli; label from the status in PepcDB or PDB records

| Sequence | soluble on expression in E. coli |
| --- | --- |
| MSLALRSLIADARRLVVKVGSSLVTDDGRGLDQAAIARWAAQIAALRAAGKEVVLVSSGAIAEGMQRLGWTRRPKEIHELQAAAAVGQMGLAQVYESEFARHGIRTAQVLLTHGDLADRERYLNARSTLLTLLGLGVVPIINENDTVVTDEIKFGDNDTLGALVTNLIEGDALIILTDQRGLYTADPRKHPDARFVDEAQAGAPELEAMAGGAGSSIGKGGMLTKIVAAKRAAKSGAHTVIASGREADVLARLAGGEAIGTQLRAPTGRMAARKQWMIDHLQLRGRVVLDAGAVDKLTAGGKSLLPIGVTEVQGEFARGEVISCVDTAGREVARGLTNYSAAEARLIARKASSEIEAVLGYVSAAELVHRDNLVLLEGHHHHHH | soluble |
| MKNVTRILTLSNGYHLWSHTSNLGGRTKLLCLHGGPGDTHEVFERFGPELADLDIEVTMYDQLGSWYSDTPNWDDDAIRQQYLTEDYYLSEVDEVRQQLGYKHCYLAGHSWGGMLAMTYAADHQDQLDGLIIISMIDNIADYLKRMHAIRTAEFSPAENAFMLAIEKRQQWNNPHYRQLITHLYHQYINRCHPSMMQHQLDIQAKPVYNHFQGDNEFVVYGVLDDWDFSDTLATIQVPTLLMFADHETMPLATAERMQQRMPNAKLVVTPDSGHNHMVDNPAVFFTYLRNYFSDQLGR | not soluble |
| MLPSAQVARLKPDPFPPSLSPIPHGAVTFAALAPCHNLPIFSSRQMLRDSLTYSHTSPTMSPQIANRFEASLDAQDIARISLFTLESGVILRDVPVAYKSWGRMNVSRDNCVIVCHTLTSSAHVTSWWPTLFGQGRAFDTSRYFIICLNYLGSPFGSAGPCSPDPDAEGQRPYGAKFPRTTIRDDVRIHRQVLDRLGVRQIAAVVGASMGGMHTLEWAFFGPEYVRKIVPIATSCRQSGWCAAWFETQRQCIYDDPKYLDGEYDVDDQPVRGLETARKIANLTYKSKPAMDERFHMAPGVQAGRNISSQDAKKEINGTDSGNSHRAGQPIEAVSSYLRYQAQKFAASFDANCYIAMTLKFDTHDISRGRAGSIPEALAMITQPALIICARSDGLYSFDEHVEMGRSIPNSRLCVVDTNEGHDFFVMEADKVNDAVRGFLDQSLM | soluble |
| MGSDKIHHHHHHMKETWISERRMIQLPGLTIDRHISAPNELEFPGCKYHLLCILLSDHNQQKMTRIGEQESQKSQAKGDFWICPAKMSGIWSWNSTDESLTFVIDPLFLSRMAEEVGELNESKVELLSTVNAHDPQIEAIARLFQAEFDTGGLGGHLYAESLIQVLIVHLLRQYCAFSPKIKPDVGSMPNNRLQPVFDYIHSYLDRPLLLAELAEISGISQYYFCRLFKQSMGVAPYQYVLQQRMEKAKELLHQRKYAIAEIALLVGCADQSRFTRHFKKYVGVTPRMFLSKK | not soluble |
| MEGQSGRCKIVVVGDAECGKTALLQVFAKDAYPGSYVPTVFENYTASFEIDKRRIELNMWDTSGSSYYDNVRPLAYPDSDAVLICFDISRPETLDSVLKKWQGETQEFCPNAKVVLVGCKLDMRTDLATLRELSKQRLIPVTHEQGTVLAKQVGAVSYVECSSRSSERSVRDVFHVATVASLGRGHRQLRRTDSRRGMQRSAQLSGRPDRGNEGEIHKDRAKSCNLM | soluble |
| MGVTLAKGGNVSLSKEAPGLTAVTVGLGWDVRTTTGAAYDLDASALLCSGSGRVVSDLHFVFYNNLTSPDGSVQHTGDNLTGEGEGDDESINVELAQVPAEVTKIVFPVSIHEAQSRGQSFGQVSNAFIRVVNRANNVELARYDLSEDASTETAMVFGELYRHGGEWKFRAVGQGYASGLAGIASDYGVNV | not soluble |
| MTKRNTPQRRHNILALLNEQGEVSVDDLARRFETSEVTIRKDLAALETNGLLLRRYGGAIPLPHELISESSQPVSRYKKAIARAAVSRIREHARIIVDSGSTTAALIPELGQQPGLVVMTNSLHVARALTDLEHEPVLLMTGGTWDPHSESFQGQVAEQVLRSYDFDQLFIGADGIDLIRGTTTFNELLGLSRVMAEVAREVVVMVEADKVGRKIPNLELPWSSIHTLITDDRLPVEARDQIQARGINLICAAVSLEHHHHHH | not soluble |
| MAHHHHHHMNTDERYKLLRSVGEECIQESELRNLIEKKPLIRCYDGFEPSGRMHIAQGIFKAVNVNKCTAAGCEFVFWVADWFALMNDKVGGELEKIRIVGRYLIEVWKAAGMDMDKVLFLWSSEEITSHADTYWRMVLDIGRQNTIARIKKCCTIMGKTEGTLTAAQVLYPLMQCCDIFFLKADICQLGLDQRKVNMLAREYCDLIGRKLKPVILSHHMLAGLKQGQAKMSKSDPDSAIFMEDTEEDVARKIRQAYCPRVKQSASAITDDGAPVATDDRNPVLDYFQCVVYARPGAAATIDGTTYATYEDLEQAFVSDEVSEDALKSCLIDEVNALLEPVRQHFASNEEAHELLEAVKSYRKDGATLPLAETALPAAPAKPHACMWMPALLKVPLDVAEGMIKVTKDFIAAHPEGTVTLVLPDWSAVASDEITGVEKDISAALQVNCALLKAYGLPSSVKIVTENEVILGNCDDFWVSVIGIARKNLLSHVEELYGGEVRNAGQVIAALMRVATALMLSVSHVISTSLDGHINAFAREYTKERIDCVQTLEGRIPALHRPGAAPAVLGADDVLYLDDNDMDIRRKIKKAYSAPNEEANPVISVAQHLLAQHGALSIERGEANGGNVSYNTPEALVADCGSGALHPADLKAAVLQLLLDRSAQARALLNGELKKNMTVLRNAEKKMAKKR | soluble |
| MADSSSSSFFPDFGLLLYLEELNKEELNTFKLFLKETMEPEHGLTPWNEVKKARREDLANLMKKYYPGEKAWSVSLKIFGKMNLKDLCERAKEEINWSAQTIGPDDAKAGETQEDQEAVLGDGTEYRNRIKEKFCITWDKKSLAGKPEDFHHGIAEKDRKLLEHLFDVDVKTGAQPQIVVLQGAAGVGKTTLVRKAMLDWAEGSLYQQRFKYVFYLNGREINQLKERSFAQLISKDWPSTEGPIEEIMYQPSSLLFIIDSFDELNFAFEEPEFALCEDWTQEHPVSFLMSSLLRKVMLPEASLLVTTRLTTSKRLKQLLKNHHYVELLGMSEDAREEYIYQFFEDKRWAMKVFSSLKSNEMLFSMCQVPLVCWAACTCLKQQMEKGGDVTLTCQTTTALFTCYISSLFTPVDGGSPSLPNQAQLRRLCQVAAKGIWTMTYVFYRENLRRLGLTQSDVSSFMDSNIIQKDAEYENCYVFTHLHVQEFFAAMFYMLKGSWEAGNPSCQPFEDLKSLLQSTSYKDPHLTQMKCFLFGLLNEDRVKQLERTFNCKMSLKIKSKLLQCMEVLGNSDYSPSQLGFLELFHCLYETQDKAFISQAMRCFPKVAINICEKIHLLVSSFCLKHCRCLRTIRLSVTVVFEKKILKTSLPTNTWLKFITFPDGCQDISTSLIHNKNLMHLDLKGSDIGDNGVKSLCEALKHPECKLQTLRLESCNLTVFCCLNISNALIRSQSLIFLNLSTNNLLDDGVQLLCEALRHPKCYLERLSLESCGLTEAGCEYLSLALISNKRLTHLCLADNVLGDGGVKLMSDALQHAQCTLKSLVLRRCHFTSLSSEYLSTSLLHNKSLTHLDLGSNWLQDNGVKLLCDVFRHPSCNLQDLELMGCVLTNACCLDLASVILNNPNLRSLDLGNNDLQDDGVKILCDALRYPNCNIQRLGLEYCGLTSLCCQDLSSALICNKRLIKMNLTQNTLGYEGIVKLYKVLKSPKCKLQVLGQQDFQAAQGKLQQRRPLKPLRPGQVNRKLKTEKETQNCRLSRRRIGPLETADQSQAAGARPAAGLRLRFRGLGD | soluble |
| MAHHHHHHMLPNHSCKGFVDAQGRVFVDGREYPMASGIVATEDVIQANIKAMANTIAKDYKSLSHRDVRLSPGTAATAEAAEAPISYDNPLIIISVLKGSYIFTSDFIRYLGDCGLPHVVDFVRLASYNSDTTSTGQISMLAGLRFENLRGKHVLIVEDVCDSGRTLRFLRDYIMEKFQPKSVKTLVMVNKEQAARKLDFDPEYFCLAGPNKYIVGYGFEVNDRYRDLRHIFILRDGEATRYPAKL | soluble |
| MSHVSTLRRALLGALLLAPAAALANTPIPIDVWRTPTCGCCEDWLQHLRSNGFEVRAHMVEDTAPVRSQAGMPARYGSCHTARVQGYTVEGHVPAADIRRLLRDKPRAVGLTAPGMPIGSPGMDGPAYGGRRDAYDVLLVQPDGSARVFQAYR | not soluble |
| MAVVMNWNNFSTNWDLKLLSLILAVIVWGGVSGGRTAELELTVPLELRNLPPGFSVASAVPTEASVTVAGPKILLLKLRSERIIIPLDARGVGEGTTLFTGLERRLGLPREATITRLFPATVEVRLIRSKTVQKPLEHHHHHH | not soluble |
| IMIRTDRYGVITYANEKFCEILKYDKEELIGQRFDILNSHYHAQRFFDIMWETISTGNVWNDEIRNKAKDGSYVWLDTTIIPVLNDEHVPNQYIAIYTDLS | not soluble |
